Legend:
[1] = molecular target: T1, Permanent Lys26 CNP-38 PEG4x10 kDa conjugate 12g (not fully specified)
T1 chain: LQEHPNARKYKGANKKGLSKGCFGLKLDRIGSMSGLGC

[2] = molecular target: T2, Permanent N-terminal CNP-34 PEG 5 kDa conjugate 14e (not fully specified)
T2 chain: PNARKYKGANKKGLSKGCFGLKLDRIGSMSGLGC

[3] = molecular target: T3, Permanent N-terminal CNP-38 PEG 5 kDa conjugate 15e (not fully specified)
T3 chain: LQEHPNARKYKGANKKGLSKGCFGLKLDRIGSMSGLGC

Measured: half life norm. [h] (in vitro NEP digest)

B1: recombinant human Neutral Endopeptidase (NEP) (protein)
chain: YDDGICKSSDCIKSAARLIQNMDATTEPCTDFFKYACGGWLKRNVIPETSSRYGNFDILRDELEVVLKDVLQEPKTEDIVAVQKAKALYRSCINESAIDSRGGEPLLKLLPDIYGWPVATENWEQKYGASWTAEKAIAQLNSKYGKKVLINLFVGTDDKNSVNHVIHIDQPRLGLPSRDYYECTGIYKEACTAYVDFMISVARLIRQEERLPIDENQLALEMNKVMELEKEIANATAKPEDRNDPMLLYNKMTLAQIQNNFSLEINGKPFSWLNFTNEIMSTVNISITNEEDVVVYAPEYLTKLKPILTKYSARDLQNLMSWRFIMDLVSSLSRTYKESRNAFRKALYGTTSETATWRRCANYVNGNMENAVGRLYVEAAFAGESKHVVEDLIAQIREVFIQTLDDLTWMDAETKKRAEEKALAIKERIGYPDDIVSNDNKLNNEYLELNYKEDEYFENIIQNLKFSQSKQLKKLREKVDKDEWISGAAVVNAFYSSGRNQIVFPAGILQPPFFSAQQSNSLNYGGIGMVIGHEITHGFDDNGRNFNKDGDLVDWWTQQSASNFKEQSQCMVYQYGNFSWDLAGGQHLNGINTLGENIADNGGLGQAYRAYQNYIKKNGEEKLLPGLDLNHKQLFFLNFAQVWCGTYRPEYAVNSIKTDVHSPGNFRIIGTLQNSAEFSEAFHCRKNSYMNPEKKCRVW
Almost no proteolysis after 4 days.: all assays above

Reference: patent US20170368189
